Starred links: 1 amine or outer side, 2 acyl side, 3 side chain; linkers in the order of their positions; H or OH if unused. Positions of bridges follow the written chain, without caps; N, C: chain ends. Non-standard residues stand in square brackets, D forms with d. Primed or numbered codes have the meaning given here. No end group written: not given here. mXylyl(3) = bridging moiety between the two residues given in brackets; Tyr(OMe) = O-methyl tyrosine, COc1ccc(C[C@H](N[*:1])C(=O)[*:2])cc1; mXylyl″ = bridging moiety between the two marked residues; Trp(7-aza) = N[C@@H](Cc1c[nH]c2ncccc12)C(=O)O; mXylyl(4) = bridging moiety between residues; NMePhe(4-F) = CN[C@@H](Cc1ccc(F)cc1)C(=O)O; pXylyl = bridging moiety between residues; PEG2000 = polyethylene glycol, 2000 Da; Phe(4-F) = N[C@@H](Cc1ccc(F)cc1)C(=O)O; mXylylene = c1cc(C[*:1])cc(C[*:2])c1; Phg(2-OMe)′ = not defined here; dChg = N[C@@H](C(=O)O)C1CCCCC1; Chg = N[C@H](C(=O)O)C1CCCCC1; Phg = N[C@H](C(=O)O)c1ccccc1; Tle = CC(C)(C)[C@H](N)C(=O)O; NMeS = CN[C@@H](CO)C(=O)O; NMeA = CN[C@@H](C)C(=O)O; Nva = CCC[C@H](N)C(=O)O; Sar = CNCC(=O)O
Target: human C5 protein (human, UniProt P01031 19-673; P01031 678-1676)
Assay: cell-based or functional assay

Binder: Ac-[Nva]C[Phg]T[Trp(7-aza)]E[Phe(4-F)][NMeS]HC[Nva]-NH2 (linker 2-10 via mXylyl(3)) [R3073]
- Avg. IC50, human hemolysis assay: 403 nM

Binder: Ac-[Nva]C[Phg(2-OMe)′]T[Trp(7-aza)]EY[NMeS]HC[Nva]-NH2 (linker 2-10 via mXylyl(3)) [R3087]
- Avg. IC50, human hemolysis assay: > 25000 nM

B1: R3005 (peptide)
peptide: Ac-[Nva]CY[Trp(7-aza)][Sar][Tle][Nva][Trp(7-aza)]EYP[Phg]P-NH2
SMILES: CCC[C@H](NC(C)=O)C(=O)N[C@@H](CS)C(=O)N[C@@H](Cc1ccc(O)cc1)C(=O)N[C@@H](Cc1c[nH]c2ncccc12)C(=O)N(C)CC(=O)N[C@H](C(=O)N[C@@H](CCC)C(=O)N[C@@H](Cc1c[nH]c2ncccc12)C(=O)N[C@@H](CCC(=O)O)C(=O)N[C@@H](Cc1ccc(O)cc1)C(=O)N1CCC[C@H]1C(=O)N[C@H](C(=O)N1CCC[C@H]1C(N)=O)c1ccccc1)C(C)(C)C
- Avg. IC50, human hemolysis assay: 66.7 nM

B2: R3057 (peptide)
peptide: MCVERFCD[Tle]Y[Trp(7-aza)]EYP[Phg][Nva]-NH2
modifications: linker 2-7 via mXylyl(4); not fully specified; printed as [mXylyl(2,7)]M-C-V-E-R-F-C-D-Tbg-Y-azaTrp-E-Y-P-Phg-Nvl-NH2
- Avg. IC50, human hemolysis assay: 12.4 nM

Binder: Ac-[Nva]C[Chg]T[Trp(7-aza)]EY[NMeS]HC[Nva]-NH2 (linker 2-10 via pXylyl) [R3058]
- Avg. IC50, human hemolysis assay: > 10000 nM

Binder: Ac-[Nva]C[Phg]T[Trp(7-aza)]EYSAC[Nva]-NH2 (linker 2-10 via mXylyl(3)) [R3084]
- Avg. IC50, human hemolysis assay: > 100000 nM

Binder: Ac-[Nva]C[Phg]T[Trp(7-aza)]EYPHC[Nva]-NH2 (linker 2-10 via pXylyl) [R3065]
- Avg. IC50, human hemolysis assay: 394 nM

Binder: [Nva]CY[Tle][Phg]N[Sar]LC[Phg][NMeA]-NH2 (linker 2-9 via mXylyl(4)) [R3052]
- Avg. IC50, human hemolysis assay: > 100000 nM

Binder: [Nva]CY[NMeS][Phg][NMePhe(4-F)][NMeS]H[NMePhe(4-F)][Sar]C-NH2 (linker 2-11 via mXylyl(4)) [R3051]
- Avg. IC50, human hemolysis assay: > 100000 nM

Binder: Ac-[Chg]C[Phg]T[Trp(7-aza)]EY[NMeS]AC[Nva]-NH2 (linker 2-10 via mXylyl(3)) [R3089]
- Avg. IC50, human hemolysis assay: > 15000 nM

Binder: Ac-[Nva]C[Phg]T[Trp(7-aza)]E[Tyr(OMe)][NMeS]HC[Nva]-NH2 (linker 2-10 via mXylyl(3)) [R3074]
- Avg. IC50, human hemolysis assay: 308 nM

Binder: [Nva]CY[NMeS][Phg][NMePhe(4-F)][NMeS]H[NMePhe(4-F)]GC-NH2 (linker 2-11 via mXylyl(3)) [R3075]
- Avg. IC50, human hemolysis assay: > 75000 nM

Binder: PEG2000-[Nva][Nva]YEN[Tle]Y[Trp(7-aza)]EYP[Phg][Nva]-NH2 [R3078]
- Avg. IC50, human hemolysis assay: 568 nM

Binder: Ac-[Nva]C[dChg]T[Trp(7-aza)]EY[NMeS]AC[Nva]-NH2 (linker 2-10 via mXylyl(3)) [R3093]
- Avg. IC50, human hemolysis assay: > 100000 nM

B3: R3053 (peptide)
peptide: [Nva]CCN[Tle][Phg]C[Tle][NMeS]C[Tle]-NH2
modifications: linker (positions not given here) via mXylylene; also: mXylyl bicyclo: linked cysteines not given here
- Avg. IC50, human hemolysis assay: > 100000 nM

Binder: Ac-[Nva]CKE[Phg]YC[NMeS][Tle]K[Trp(7-aza)]EY-NH2 (linker 2-7 via mXylyl″) [R3007]
- Avg. IC50, human hemolysis assay: 314 nM

B4: R3072 (peptide)
peptide: Ac-[Nva][Nva]YEN[Tle]Y[Trp(7-aza)]EYP[Chg][Nva]K-NH2
SMILES: CCC[C@H](NC(C)=O)C(=O)N[C@@H](CCC)C(=O)N[C@@H](Cc1ccc(O)cc1)C(=O)N[C@@H](CCC(=O)O)C(=O)N[C@@H](CC(N)=O)C(=O)N[C@H](C(=O)N[C@@H](Cc1ccc(O)cc1)C(=O)N[C@@H](Cc1c[nH]c2ncccc12)C(=O)N[C@@H](CCC(=O)O)C(=O)N[C@@H](Cc1ccc(O)cc1)C(=O)N1CCC[C@H]1C(=O)N[C@H](C(=O)N[C@@H](CCC)C(=O)N[C@@H](CCCCN)C(N)=O)C1CCCCC1)C(C)(C)C
- Avg. IC50, human hemolysis assay: 26.9 nM

B5: R3077 (peptide)
peptide: Ac-[Nva][Nva]YEN[Tle]Y[Trp(7-aza)]EYP[Chg][Nva]K
modifications: not fully specified (residue 14, C-terminus); printed as Ac-Nvl-Nvl-Y-E-N-Tbg-Y-azaTrp-E-Y-P-Chg-Nvl-K-(PEG2000) NH2; also: PEG2000 at C-terminal Lys (K-(PEG2000) NH2), attachment unclear
- Avg. IC50, human hemolysis assay: 81.7 nM

Binder: Ac-[Nva]C[Phg]T[Trp(7-aza)]EY[NMeS]C[Nva]-NH2 (linker 2-9 via mXylyl(3)) [R3080]
- Avg. IC50, human hemolysis assay: > 50000 nM

Binder: Ac-[Nva]SYEC[Tle]Y[Trp(7-aza)]EYP[Chg]C[Nva]-NH2 (linker 5-13 via mXylyl(3)) [R3086]
- Avg. IC50, human hemolysis assay: > 50000 nM

Binder: Ac-[Nva]CFT[Trp(7-aza)]EY[NMeS]AC[Nva]-NH2 (linker 2-10 via mXylyl(3)) [R3090]
- Avg. IC50, human hemolysis assay: > 100000 nM

Binder: Ac-VC[Phg]T[Trp(7-aza)]EY[NMeS]AC[Nva]-NH2 (linker 2-10 via mXylyl(3)) [R3083]
- Avg. IC50, human hemolysis assay: > 25000 nM

B6: R3006 (peptide)
peptide: Ac-YEN[Tle]Y[Trp(7-aza)]EY[Sar][Nva][NMeS]-NH2
SMILES: CCC[C@H](NC(=O)CN(C)C(=O)[C@H](Cc1ccc(O)cc1)NC(=O)[C@H](CCC(=O)O)NC(=O)[C@H](Cc1c[nH]c2ncccc12)NC(=O)[C@H](Cc1ccc(O)cc1)NC(=O)[C@@H](NC(=O)[C@H](CC(N)=O)NC(=O)[C@H](CCC(=O)O)NC(=O)[C@H](Cc1ccc(O)cc1)NC(C)=O)C(C)(C)C)C(=O)N(C)[C@@H](CO)C(N)=O
- Avg. IC50, human hemolysis assay: 267 nM

Binder: VVYENGYWEYPGVK (Ac-Nvl-Nvl-Y-E-N-Tbg-Y-azaTrp-E-Y-P-Chg-Nvl-K-(BODIPY-TMR-X) NH2) [R3076]
- Avg. IC50, human hemolysis assay: 297 nM

Reference: patent US20210283212A1 (RA PHARMACEUTICALS, published 2021)
